According to patent US20230357367A1 (GENERATE BIOMEDICINES, published 2023):
Where a chain is given by its changes, count along the chain named. Read-outs that look alike come from different tables or passages of the source.

B1: AB-1 (antibody, V domains shown)
VH: EVQLVESGAEVKKPGESLKISCKGSGYTFTRYWIGWVRQMPGKGLEWMGIIYPGDSDVRYSPSFQGHVTISADKSISTAYLQWNSLKASDTAMYYCARLPQYCSKGVCYRWFDPWGQGTLVTVSS
VL: EIVLTQSPSSVSASVGDRVTITCRASQGISSWLAWYQQKPGKAPKLLIYAASSLQSGVPSRFSGSGSGTDFTLTISSLQPEDFATYYCQQGHSFPYTFGQGTNLEIK
B2: Reference Antibody (antibody, V domains shown)
VH: B1 VH with V58T, K105N, Y109Q
VL: B1 VL with H92N

Legend:
Test in all cases: cell-based or functional assay
[1] = target: SARS-CoV-2 D614G Spike on pseudovirus (SARS-CoV-2, UniProt P0DTC2 14-1273)
[2] = target: T1, SARS-CoV-2 Delta Spike on virus particles (SARS-CoV-2)
[3] = target: T2, SARS-CoV-2 Omicron BA.2 Spike on pseudovirus (SARS-CoV-2)
[4] = target: T3, SARS-CoV-2 Omicron BA.4/5 Spike on pseudovirus (SARS-CoV-2)
[5] = target: T1, SARS-CoV-2 Delta Spike on virus …; remark: listed apart in the source
[6] = target: T4, SARS-CoV-2 Omicron BA.1 Spike on virus particles (SARS-CoV-2)
[7] = target: T2, SARS-CoV-2 Omicron BA.2 Spike on …; remark: listed apart in the source
[8] = target: T5, SARS-CoV-2 Omicron BA.2.12.1 Spike on pseudovirus (SARS-CoV-2)
[9] = target: T3, SARS-CoV-2 Omicron BA.4/5 Spike on …; remark: listed apart in the source
[10] = target: T1, SARS-CoV-2 Delta Spike on virus …; remark: listed apart in the source
[11] = target: T4, SARS-CoV-2 Omicron BA.1 Spike on virus …; remark: listed apart in the source
[12] = target: T2, SARS-CoV-2 Omicron BA.2 Spike on …; remark: listed apart in the source
[13] = target: T5, SARS-CoV-2 Omicron BA.2.12.1 Spike on …; remark: listed apart in the source
[14] = target: T3, SARS-CoV-2 Omicron BA.4/5 Spike on …; remark: listed apart in the source
[15] = target: T1, SARS-CoV-2 Delta Spike on virus …; remark: listed apart in the source
[16] = target: T4, SARS-CoV-2 Omicron BA.1 Spike on virus …; remark: listed apart in the source
[17] = target: T3, SARS-CoV-2 Omicron BA.4/5 Spike on …; remark: listed apart in the source
[18] = target: SARS-CoV-2 Omicron BA.4/5+K444T Spike on pseudovirus (SARS-CoV-2)
[19] = target: T5, SARS-CoV-2 Omicron BA.2.12.1 Spike on …; remark: listed apart in the source

Row | Binder | EC50, pseudovirus neutralization on TMPRSS2-Vero E6 cells [1] | IC50, pseudovirus neutralization [2] | IC50, pseudovirus neutralization [3] | IC50, pseudovirus neutralization [4] | IC50, pseudovirus neutralization [5] | IC50, pseudovirus neutralization [6] | IC50, pseudovirus neutralization [7] | IC50, pseudovirus neutralization [8] | IC50, pseudovirus neutralization [9] | % neutralization at 4.5 µg/ml, pseudovirus [10] | % neutralization at 4.5 µg/ml, pseudovirus [11] | % neutralization at 4.5 µg/ml, pseudovirus [12] | % neutralization at 4.5 µg/ml, pseudovirus [13] | % neutralization at 4.5 µg/ml, pseudovirus [14] | IC50, live virus neutralization [15] | IC50, live virus neutralization [16] | Neutralization - IC50, pseudovirus [17] | Neutralization - IC50, pseudovirus [18] | IC50, pseudovirus neutralization [19]
1 | B1 | 0.013 µg/mL | 0.034 µg/mL | 0.031 µg/mL | 0.075 µg/mL | 0.0139 µg/mL | 0.0088 µg/mL | 0.0219 µg/mL | 0.0133 µg/mL | 0.0278 µg/mL | 99.5% | 96.5% | 89.9% | 89.2% | 90.4% | 0.236 µg/mL | 0.119 µg/mL | 0.0101 µg/mL | 0.0094 µg/mL | 
2 | B2 |  | 0.256 µg/mL | 1.25 µg/mL | 0.634 µg/mL | 0.0681 µg/mL | 0.0261 µg/mL | 0.0941 µg/mL | 0.0307 µg/mL | 0.0314 µg/mL | 93.9% | 91.9% | 74.5% |  | 74.4% | 7.45 µg/mL | 0.528 µg/mL |  |  | 0.337 µg/mL
